Test results from patent publication US20160264649A1.

Tests used:
Assay in all cases: cell-based or functional assay
[1] = target: HIV-1 Env of pseudovirus isolate MGRM-G-009 (subtype G) (HIV-1)
[2] = target: envelope of aMLV pseudovirus (negative control)
[3] = target: HIV-1 Env of pseudovirus isolate MGRM-G-006 (subtype G) (HIV-1)
[4] = target: HIV-1 Env of pseudovirus isolate MGRM-G-027 (subtype G) (HIV-1)
[5] = target: HIV-1 Env of pseudovirus isolate MGRM-G-016 (subtype G) (HIV-1)
[6] = target: HIV-1 Env of isolate 92UG046 (subtype D) (HIV-1)
[7] = target: HIV-1 Env of isolate 92UG024 (subtype D) (HIV-1)
[8] = target: HIV-1 Env of pseudovirus isolate MGRM-G-001 (subtype G) (HIV-1)
[9] = target: HIV-1 Env of pseudovirus isolate MGRM-G-011 (subtype G) (HIV-1)
[10] = target: HIV-1 Env of pseudovirus isolate MGRM-G-024 (subtype G) (HIV-1)
[11] = target: HIV-1 Env of pseudovirus isolate MGRM-G-004 (subtype G) (HIV-1)
[12] = target: HIV-1 Env of isolate 98CN006 (subtype CRF08_BC) (HIV-1)
[13] = target: HIV-1 Env of pseudovirus isolate MGRM-G-015 (subtype G) (HIV-1)
[14] = target: HIV-1 Env of pseudovirus isolate MGRM-G-019 (subtype G) (HIV-1)
[15] = target: HIV-1 Env of pseudovirus isolate MGRM-G-013 (subtype G) (HIV-1)
[16] = target: HIV-1 Env of pseudovirus isolate MGRM-G-014 (subtype G) (HIV-1)
[17] = target: HIV-1 Env of isolate 92UG005 (subtype D) (HIV-1)
[18] = target: HIV-1 Env of pseudovirus isolate MGRM-G-017 (subtype G) (HIV-1)
[19] = target: HIV-1 Env of isolate 98CN009 (subtype CRF07_BC) (HIV-1)
[20] = target: HIV-1 Env of pseudovirus isolate MGRM-G-028 (subtype G) (HIV-1)
[21] = target: HIV-1 Env of pseudovirus isolate MGRM-G-025 (subtype G) (HIV-1)
[22] = target: HIV-1 Env of isolate 92UG001 (subtype D) (HIV-1)

Chain of PGT-144 (antibody) (VH): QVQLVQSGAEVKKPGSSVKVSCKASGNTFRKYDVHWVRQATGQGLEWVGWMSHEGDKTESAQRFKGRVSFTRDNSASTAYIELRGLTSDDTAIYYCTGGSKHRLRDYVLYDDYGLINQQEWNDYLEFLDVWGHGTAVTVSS
Chain of PGT-144 (antibody) (VL): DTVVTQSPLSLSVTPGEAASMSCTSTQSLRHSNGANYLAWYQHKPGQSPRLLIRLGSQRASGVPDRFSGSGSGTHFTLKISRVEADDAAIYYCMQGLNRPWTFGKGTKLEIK
Chain of PGT-141 (antibody) (VH): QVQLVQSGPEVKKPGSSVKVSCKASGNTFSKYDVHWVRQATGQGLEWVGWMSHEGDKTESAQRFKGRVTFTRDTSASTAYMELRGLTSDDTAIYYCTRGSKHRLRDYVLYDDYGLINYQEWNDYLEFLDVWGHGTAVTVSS
Chain of PGT-141 (antibody) (VL): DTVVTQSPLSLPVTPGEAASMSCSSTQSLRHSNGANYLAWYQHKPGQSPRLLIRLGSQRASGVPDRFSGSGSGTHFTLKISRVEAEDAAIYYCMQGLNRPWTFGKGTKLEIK
Chain of PGT-143 (antibody) (VH): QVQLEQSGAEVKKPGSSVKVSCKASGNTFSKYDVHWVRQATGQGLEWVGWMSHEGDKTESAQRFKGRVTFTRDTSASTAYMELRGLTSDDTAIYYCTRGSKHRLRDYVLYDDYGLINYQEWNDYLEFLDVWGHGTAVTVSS
Chain of PGT-143 (antibody) (VL): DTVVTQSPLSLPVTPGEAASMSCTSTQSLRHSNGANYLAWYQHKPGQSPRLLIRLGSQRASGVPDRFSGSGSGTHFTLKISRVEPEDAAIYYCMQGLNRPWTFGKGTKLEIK
Chain of PGT-145 (antibody) (VH): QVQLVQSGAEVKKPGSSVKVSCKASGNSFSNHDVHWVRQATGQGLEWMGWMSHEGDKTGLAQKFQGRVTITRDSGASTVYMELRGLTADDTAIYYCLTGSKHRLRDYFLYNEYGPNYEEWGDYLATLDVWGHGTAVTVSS
Chain of PGT-145 (antibody) (VL): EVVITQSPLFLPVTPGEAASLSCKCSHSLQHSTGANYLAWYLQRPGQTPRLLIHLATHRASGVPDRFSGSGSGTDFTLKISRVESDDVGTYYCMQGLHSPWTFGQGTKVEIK
Chain of PGT-142 (antibody) (VH): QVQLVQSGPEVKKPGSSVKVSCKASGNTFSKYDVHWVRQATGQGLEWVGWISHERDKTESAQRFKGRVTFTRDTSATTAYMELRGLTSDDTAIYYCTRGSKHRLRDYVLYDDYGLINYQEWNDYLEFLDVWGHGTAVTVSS

| Substance | IC50 [1] [µg/mL] | IC50 [2] [µg/mL] | IC50 [3] [µg/mL] | IC50 [4] [µg/mL] | IC50 [5] [µg/mL] | IC50 (neutralization) [6] [µg/mL] | IC50 (neutralization) [7] [µg/mL] | IC50 [8] [µg/mL] | IC50 [9] [µg/mL] | IC50 [10] [µg/mL] | IC50 [11] [µg/mL] | IC50 (neutralization) [12] [µg/mL] | IC50 [13] [µg/mL] | IC50 [14] [µg/mL] | IC50 [15] [µg/mL] | IC50 [16] [µg/mL] | IC50 (neutralization) [17] [µg/mL] | IC50 [18] [µg/mL] | IC50 (neutralization) [19] [µg/mL] | IC50 [20] [µg/mL] | other results |
| --- | --- | --- | --- | --- | --- | --- | --- | --- | --- | --- | --- | --- | --- | --- | --- | --- | --- | --- | --- | --- | --- |
| PGT-141 (antibody) | 1.89 | > 50 | 0.043 | > 50 | 4.69 | > 50 | > 50 | 0.392 | 0.086 | 0.051 | > 50 | > 50 | > 50 | 20.3 | > 50 | 0.222 | > 50 | 0.164 | 1.28 | 24.9 | IC50 [21]: > 50 µg/mL; IC50 (neutralization) [22]: > 50 µg/mL |
| PGT-142 (antibody) | 2.81 | > 50 | 0.019 | > 50 | 8.17 | > 50 | > 50 | 0.362 | 0.046 | 0.054 | > 50 | > 50 | > 50 | 5.95 | > 50 | 0.076 | > 50 | 0.125 | 4 | 30.3 | IC50 [21]: > 50 µg/mL; IC50 (neutralization) [22]: > 50 µg/mL |
| PGT-143 (antibody) | 2.97 | > 50 | 0.031 | > 50 | 7.6 | > 50 | > 50 | 0.423 | 0.074 | 0.048 | > 50 | > 50 | > 50 | 4.77 | > 50 | 0.107 | > 50 | 0.107 | 10.2 | 43 | IC50 [21]: > 50 µg/mL; IC50 (neutralization) [22]: > 50 µg/mL |
| PGT-144 (antibody) | > 50 | > 50 | 3.84 | > 50 | > 50 | > 50 | > 50 | > 50 | 1.58 | 7.92 | > 50 | > 50 | > 50 | > 50 | > 50 | 0.562 | > 50 | 9.97 | > 50 | > 50 | IC50 [21]: > 50 µg/mL; IC50 (neutralization) [22]: > 50 µg/mL |
| PGT-145 (antibody) | 0.982 | > 50 | 0.286 | 0.433 | 0.081 | > 50 | 1.6 | 0.028 | 0.028 | 0.06 | > 50 | > 50 | 10.5 | 0.041 | > 50 | 0.144 | > 50 | 0.205 | 0.136 | 0.046 | IC50 [21]: > 50 µg/mL; IC50 (neutralization) [22]: > 50 µg/mL |
